According to the supplement of paper PMC12042874:
± gives the uncertainty stated by the source.

Assay: amyloid nucleation score (Sup35N fusion, yeast selection) (log enrichment); library NNK3; higher = more nucleation; inactive = no reads after selection
Summary of the method: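 The nucleation score, computed with DiMSum, is the log enrichment of output over input reads, centred on the mode score of non-aggregating sequences. Sequences with under 100 input reads were dropped. Reads were generated by Illumina sequencing of plasmid inserts from psi-negative yeast with Sup35N fused to peptides of 20 random codons, induced with 100 μM copper sulfate for 24 hours and grown 7 days at 30°C on medium lacking adenine and uracil.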
In the case of YIRLCSVFGTTWYARLDG, the amyloid nucleation score is reported as 0.459 ± 0.27.
With LVLMVSQGSYFTTI the amyloid nucleation score was -0.474 ± 0.57.
In the case of SYSLNNYMTKLVWIYVSWLL, the amyloid nucleation score is reported as “inactive”.
NYLLEEEYMISCIEAITLQP showed an amyloid nucleation score of -0.345 ± 0.82.
GTISIGSIRAVLLAFPFYAL gave an amyloid nucleation score of 1.08 ± 0.13.
In the case of TMKGTSKVSLLVSSGASRMG, the amyloid nucleation score is reported as “inactive”.
In the case of LNYNF, the amyloid nucleation score is reported as “inactive”.
With SSSKMW the amyloid nucleation score was “inactive”.
In the case of ILAVAPVVPGVVLGRNCRAR, the amyloid nucleation score is reported as “inactive”.
With VITTVTTWGLRAGDVMRRTR the amyloid nucleation score was 1.11 ± 0.17.
In the case of ALNWISYREMHIFIAYFADS, the amyloid nucleation score is reported as “inactive”.
In the case of CGLPTVKTYRMEMSYNRLDW, the amyloid nucleation score is reported as “inactive”.
With GWNSFPRPLYPRWDNSESAS the amyloid nucleation score was “inactive”.
In the case of TLWLRVLSFWTVCFLVHFTM, the amyloid nucleation score is reported as “inactive”.
In the case of KCCYRMVVDTV, the amyloid nucleation score is reported as “inactive”.
For WCFHDGLRAYVNFCRVYATN, the amyloid nucleation score was “inactive”.
In the case of PNRFNIIHVKFRFSFYATLT, the amyloid nucleation score is reported as “inactive”.
With DCSGG the amyloid nucleation score was “inactive”.
With SDLYTIGVVPTLTFINAPCI the amyloid nucleation score was “inactive”.
For RMRSMRSMF, the amyloid nucleation score was “inactive”.
GVLSCLSIMIAISGLPGSEK gave an amyloid nucleation score of 0.801 ± 0.2.
With DLVRAMRCHSVGDVGYASSS the amyloid nucleation score was “inactive”.
In the case of VFYELAYFSNNQTDQWVLD, the amyloid nucleation score is reported as “inactive”.
With KSDVS the amyloid nucleation score was “inactive”.
For FRCTRGSIVWSFYFVRNLMI, the amyloid nucleation score was “inactive”.
In the case of YSCAKRTRVGTRSSRKVSLA, the amyloid nucleation score is reported as “inactive”.
With IHKLHYIYGGLMSTWLLEDT the amyloid nucleation score was “inactive”.
In the case of SLNMSN, the amyloid nucleation score is reported as “inactive”.
FCAVALFFNTSVSFIDRSLP gave an amyloid nucleation score of 1.66 ± 0.083.
In the case of CMMPLNATRYVYLPNAAHSL, the amyloid nucleation score is reported as “inactive”.
With KFPFSGPSRMTRRVMQRALL the amyloid nucleation score was “inactive”.
For TVMPLRMSSISGSAGTSA, the amyloid nucleation score was “inactive”.
For WFFTLCSSDQVSRGMR, the amyloid nucleation score was “inactive”.
In the case of KLCTVINRLYLHRGGNSNSQ, the amyloid nucleation score is reported as “inactive”.
With INICLLLKQRHEWMCCKNCM the amyloid nucleation score was 2.85 ± 0.074.
In the case of LFMLVAE, the amyloid nucleation score is reported as “inactive”.
TTTAYWNESDTLRCMLV gave an amyloid nucleation score of -0.757 ± 1.4.
For HQISFSM, the amyloid nucleation score was “inactive”.
With HLLELELVFSILRRLMYWPM the amyloid nucleation score was “inactive”.
With WFFDTDIFHCEFEKMYYPLV the amyloid nucleation score was “inactive”.
In the case of GNMKNHTMQFAEVVDGDFTM, the amyloid nucleation score is reported as “inactive”.
With PFGPHYNPTM the amyloid nucleation score was “inactive”.
With HGRLLYVSYISDMINASYGQ the amyloid nucleation score was “inactive”.
In the case of GPLSHRN, the amyloid nucleation score is reported as “inactive”.
In the case of ESLIRVICMVDERSEQTWSG, the amyloid nucleation score is reported as “inactive”.
In the case of HASSHYT, the amyloid nucleation score is reported as “inactive”.
For CEIRSCGENFNATSRGRPGI, the amyloid nucleation score was “inactive”.
For FWTKFC, the amyloid nucleation score was “inactive”.
For FIANGSDILADLFLHTSFHG, the amyloid nucleation score was “inactive”.
In the case of FYGHQVNISGDNGVRTRPEV, the amyloid nucleation score is reported as “inactive”.
With FGYVQVTKDPSFMCNYGMQS the amyloid nucleation score was “inactive”.
For PISLCSWATRFCSYFDKHKL, the amyloid nucleation score was “inactive”.
For AYRAITGSCVMSEVRGAWRL, the amyloid nucleation score was “inactive”.
Work on CGVCFYHIAWGSVHDTS yielded an amyloid nucleation score of 0.93 ± 0.16.
With LSMSAVL the amyloid nucleation score was “inactive”.
With FSGCWRWNNQ the amyloid nucleation score was “inactive”.
In the case of AFVRMLW, the amyloid nucleation score is reported as 1.49 ± 0.13.
HWTNHYNYCGRA showed an amyloid nucleation score of 1.19 ± 0.082.
For TKSPSGTHFLLVRFWSRCGR, the amyloid nucleation score was “inactive”.
For GVSVCVGDVGNLAAFECFRA, the amyloid nucleation score was “inactive”.
For VAPLANHKASRDSYAYVSGS, the amyloid nucleation score was “inactive”.
In the case of TTMNVTFVPANLWCKSSHEA, the amyloid nucleation score is reported as “inactive”.
With MPPRVRYR the amyloid nucleation score was “inactive”.
With IEYRKITKLIKLGISGVERS the amyloid nucleation score was -0.978 ± 1.3.
With IRSVVIRVSFYFTWF the amyloid nucleation score was “inactive”.
Work on GISALSVWFCISDRRSDQDH yielded an amyloid nucleation score of 2.63 ± 0.057.
With RVHFALYSV the amyloid nucleation score was 1.65 ± 0.062.
With RNWKSYRYAVGRCDMGSELL the amyloid nucleation score was “inactive”.
With SSDMFFRYESPVH the amyloid nucleation score was “inactive”.
For HSELW, the amyloid nucleation score was “inactive”.
With WYSYPNFG the amyloid nucleation score was “inactive”.
Substance YIGVYYLN has an amyloid nucleation score of 0.431 ± 0.28.
With LSGVLLILSMYLDYWTNIF the amyloid nucleation score was “inactive”.
With SHFGLDAICFIKLSTDGCTG the amyloid nucleation score was “inactive”.
With ACTLLCFRIAQLEFLWVRVD the amyloid nucleation score was “inactive”.
In the case of QDPMLTCGGRWDFTCAGEVP, the amyloid nucleation score is reported as “inactive”.
For SRRTIVNQSSF, the amyloid nucleation score was “inactive”.
With ILVTLMVYIPHEYISVINLL the amyloid nucleation score was “inactive”.
With QGGGNIDSSVVTDSSDVVYS the amyloid nucleation score was “inactive”.
